± gives the uncertainty stated by the source.

A short description of this data set: amyloid nucleation score (Sup35N fusion, yeast selection) (log enrichment); library NNK2; higher = more nucleation; inactive = no reads after selection. Summed up:
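On medium lacking adenine and uracil, psi-negative yeast expressing peptides of 20 random codons fused to Sup35N were grown 7 days at 30°C after a 24-hour induction with 100 μM copper sulfate. Illumina sequencing of input and output plasmid inserts gave the reads, and sequences under 100 input reads were excluded. The nucleation score is the DiMSum log enrichment of output over input reads, centred on the mode score of non-aggregating sequences.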
Regarding DRFMVMFMLKVGVIVWNYGD, the amyloid nucleation score was determined as 0.262 ± 0.54. Next, VETYT: 0.022 ± 0.65; SLVYKGLCILSTLFLYFDFL: -0.337 ± 1. Next, CFFLTHCRDIRNVSTV: -0.234 ± 0.37; RFFADLTMDQFNIFGGLWQG: 1.09 ± 0.3; CNIVNFMWAGENFR: 5.48 ± 0.086. On to DFPQCKNTETLL, for which the amyloid nucleation score is 0.279 ± 0.4. Turning to RMPFHVFRIKFHFLLRVPIQ, the amyloid nucleation score was 0.851 ± 0.52. Turning to DKANRDQWHQAKSSVCFGGV, the amyloid nucleation score is 0.089 ± 0.56. In turn, NDSTLGRLSYNLRDLRSQKM had an amyloid nucleation score of -0.502 ± 0.79. The same measure for LSGRHY: 0.33 ± 0.74; for HWSAS: 1.35 ± 0.47. The same measure for VLSNLIFYLSPFCIMHLMR: 3.27 ± 0.13. The same measure for LFIYYWYLLFYGSPYIWLPV: -0.363 ± 1.1; for FSKLLDGLTNRSESPASSVD: 1.69 ± 0.14.

In turn, EMWSISIKISGR came in with an amyloid nucleation score of 0.763 ± 0.57. Next, VKYFSYDIVGVGREYYFKTT: -0.555 ± 0.76; HHFNLPMKKGRFVSLGFSLV: -0.623 ± 1; ICSPFVFGFCGTNFRRVLHR: 6.978 ± 0.033.

GDGFLSFSERSKKYSQSS showed an amyloid nucleation score of -0.855 ± 0.55.

Regarding QELIK, the amyloid nucleation score amounted to 0.574 ± 0.44.

FRIHIWYGY came in with an amyloid nucleation score of 0.244 ± 0.17. The same measure for TNADGRTGT: -0.385 ± 0.39; for YLGLDARLI: 0.661 ± 0.8; for IVSTV: 0.655 ± 0.49.

The substance AYSEPAISQRFFLSGLKSII had an amyloid nucleation score of -0.885 ± 0.34. The same measure for EDIIIVQFVV: 0.424 ± 0.24.

Consider HISCMKLLSRLGYTCESLMW, for which the amyloid nucleation score was -1.19 ± 0.55. Next, ACFSSSLCFVGMERSRSHNF: 1.91 ± 0.13; FFMLYYGYLLSVRDSCSLCI: -0.017 ± 0.76. The same measure for VDIWVWVG: 0.456 ± 0.6; for YLWWMKSNY: “inactive”. The substance SVSQPYSKSVGLRGRGKQGQ registered an amyloid nucleation score of 0.737 ± 0.46. The same measure for VCSNCNMDVTSYQASCKAYL: 0.783 ± 0.53. Regarding TRWCYSDFPMVKLFLLKFIT, the amyloid nucleation score turned out to be 0.416 ± 0.8. The same measure for IPTACEHKRSPRVQPQRNSA: 0.163 ± 0.4; for TMSHEFV: 0.085 ± 0.6; for TMLSESTVQTKRVRMQESRR: 7.03 ± 0.071.

The substance FSDFGMSLRISAKVEWIAMG yielded an amyloid nucleation score of -1.59 ± 0.78. The same measure for YTCRYRFTLNQTSSRRFSFW: 1.35 ± 0.13. The same measure for YYVTNSGSWLDACHGLYKTG: “inactive”; for SNSVCACCKCWLGLSLPYQG: 7.781 ± 0.046. Substance NMVHNDRSRKVKLSWCATFK returned an amyloid nucleation score of 7.609 ± 0.058. Next, VFYCKRVAMDNTSCRNSSYL: -0.536 ± 0.31; YGTKQVGKNRFFEHSYYYWP: “inactive”; RISNVWENTFTLSAGSWGVR: 1.38 ± 0.22. Next, SDVSREVKV: -0.038 ± 0.37.

In turn, FGVRDDILDSWCCTVCFSGK showed an amyloid nucleation score of 0.369 ± 0.65. The same measure for IHKAGFKDKGC: “inactive”. The same measure for TRYIADRAVVSNRC: 0.81 ± 0.31; for MLRFFCADWCSLGVCFTLGV: -0.137 ± 1.1; for PVKTNFCENINYFIVPGFAL: “inactive”. For TNCGRVINRSSVVHAFNYGV, the amyloid nucleation score result was “inactive”. The same measure for EFSRDRSENIAGTPSLRLNQ: 4.56 ± 0.049; for TGTFSAKLVDTPEGYYLLSV: -1.01 ± 0.41. In turn, IWTDVRLGGRDIVLDSRVYF returned an amyloid nucleation score of 2.14 ± 0.098.

For the substance IIPFRRSTVRLVRCLWISGL, the amyloid nucleation score came out at 1.13 ± 0.31. For the substance VMIIFLDNKRYGKAPNCGRM, the amyloid nucleation score stood at 7.263 ± 0.07. Next, TLDNIRFKLQTAGTAIMWRR: 0.311 ± 0.24; FYFIIWNSLRPILRLSVAPV: -0.392 ± 0.61. Next, VFVEVDVTGFNFRLE: -1.18 ± 0.48; PLITDFLAGMLSPENVSVPQ: 0.883 ± 0.51. INKVFNCYFLFSGHIVGLRS yielded an amyloid nucleation score of -0.321 ± 0.79. Next, CIGYLMEIHVFSNDAKVYYL: 6.24 ± 0.038. The same measure for SINYKALAS: “inactive”. The same measure for LCIIWVVRFYALWWSEPMGW: 1.14 ± 0.18; for NSMTQFCIQCGGTTIAWSMF: 6.663 ± 0.039; for SFYDARYFQCDVFAVVRIRR: 0.853 ± 0.47. Consider KECRYID, for which the amyloid nucleation score entry was “inactive”. The same measure for VGFRRVTNMDRCSFSLCCCW: 4.56 ± 0.064; for QIFSECRTYDFVLPGYMGYY: “inactive”; for TVYIYSLVSRNKEVMFFTD: “inactive”. On to PQWEKRFKYTNEWAATFNGL, for which the amyloid nucleation score result was “inactive”.

As for FFSDVIRFWNKHTCKINLLR, the amyloid nucleation score is -1.33 ± 1. Next, VSNRLRLSFKRVPHHAGYRP: 2.76 ± 0.2. Next, ACLFWIYARRHRLAWFVFIW: -0.37 ± 0.76; VYELCCLYMWLGHSNYAADM: 5.33 ± 0.044; MIGKRGVFS: “inactive”. The same measure for MMGECNFCSIGRH: 4.83 ± 0.078; for ILTFRVYPIPFDFYFGGLEL: 0.034 ± 1.1. Substance VVPCWSVNKDSRSDRSD yielded an amyloid nucleation score of -0.1 ± 1. The same measure for RNFFPHGFWSLQTKYNVLFM: 5.684 ± 0.05; for YYSWFSVYSIIILHNQQFRL: “inactive”; for DIWIMI: -0.225 ± 0.45.

In the case of FFWYWYASYEHARTSYSIRV, the amyloid nucleation score entry is “inactive”. Next, SHIPIWRKLSVQFSVKIVLE: -0.637 ± 1.1; PSSVKWTRSPGMRTTNGEVC: 1.36 ± 0.23. The same measure for ITLTLTVCTGLCWKYGRRMW: 4.49 ± 0.071. Next, IVSIFSWTEIRATLG: -1.87 ± 0.55; LTLLFGRSVSEWVWNLMDRC: -0.461 ± 0.29; TACSQVVGVIHIIVGRGRSR: 7.292 ± 0.045. The substance TSCHRLWLLFMCIAGG had an amyloid nucleation score of -0.199 ± 0.79. Next, DDCVPQWEYK: 0.695 ± 0.42; QRAYVPQTLGVRISVSSRWQ: 3.41 ± 0.096; RRFEPKVRKKHQGLFLWYSV: 0.028 ± 0.25. The same measure for LKTLIKDPMLYGQALSRVFC: -0.737 ± 1.1; for AECNRHLLQAVSLY: -0.256 ± 0.29; for GAYNNFIMCKSFVFSFQSGD: 6.33 ± 0.063. The substance LPLKNRVVDTCRKRFVGEVG had an amyloid nucleation score of -0.19 ± 1. Next, VTSNGKRTWHVAAAFGAPGE: 2.54 ± 0.12. FTIYCSYIFCQCWDTSEKSK gave an amyloid nucleation score of 8.593 ± 0.044.

In turn, ENEWCCLWGRAKRVAGVQEV came in with an amyloid nucleation score of 0.495 ± 0.62. Next, CFSNFVG: 0.746 ± 0.31; VNRVTRPNECYACQYMFGRW: 1.19 ± 0.18.

As to RRAVLVSPGVVNQGISKHQG, the amyloid nucleation score is 0.632 ± 0.25. The same measure for ICVMSQCTQMYRMKICGSLQ: 0.568 ± 0.29. For the substance VDIEDGLG, the amyloid nucleation score was found to be 0.13 ± 0.22. CYSILFSLKQIDRLLITLPR displayed an amyloid nucleation score of -1.04 ± 0.5. The same measure for LDLGAPPWH: 1.03 ± 0.36. Next, SVFSYMYRLNSALLYFFYQS: “inactive”; CKFLRVIA: -1.42 ± 0.41.

As for QNYARL, the amyloid nucleation score was -1.22 ± 1.1. The same measure for VACETRRRA: 4.948 ± 0.04; for IHASSVILITCFEFNFYYFA: 4.64 ± 0.057; for SNVDVFVTKMWRATQSCFRL: 3.67 ± 0.12. Next, RCMFDIYFVLVTCEQWCCLV: 0.099 ± 0.49. Next, CMLDA: -0.555 ± 0.76; YIWYCRMPTSSNTVSNL: “inactive”; DQGVMLFRG: -0.134 ± 0.32.

The substance MVFFLLQLATAAVFSF showed an amyloid nucleation score of -0.073 ± 1. Next, DRNMSVNI: 1.22 ± 0.44; NGDLIRDRECRANMRFIMRV: -1.21 ± 0.45. Consider LFVLVREVNVLTFLCPSEDQ, for which the amyloid nucleation score stood at 8.52 ± 0.066.

NRMFLLVLFVEL gave an amyloid nucleation score of 0.572 ± 0.27. Substance RFMVFGNLYDERYTVRFLMR had an amyloid nucleation score of 3.66 ± 0.089. The same measure for VGDWVQQVVFTRRSTSSRRV: “inactive”. SGGVR gave an amyloid nucleation score of 0.94 ± 0.32.

The substance IELLYIRYK gave an amyloid nucleation score of -2.09 ± 1.1. The same measure for GLGMGDFCILVKLKANVSRC: -0.266 ± 1.

Substance ASNAWDRLGSVPGFSRGRLR returned an amyloid nucleation score of -0.308 ± 0.48.

For SSWSSNQNSTYTLRSYTALH, the amyloid nucleation score stood at 5.2 ± 0.069.

HYSMHVNGDTAAGTYAQAFC had an amyloid nucleation score of -0.472 ± 0.76. With RADPVRVYSCVEVLGRALLG, the amyloid nucleation score result was “inactive”. TASHTWSVVCFTWYRCLVND came in with an amyloid nucleation score of 4.98 ± 0.051. DRPGDRSGTAWAWFRCETGG: the amyloid nucleation score came out at 1.1 ± 0.31.

In turn, IHDWKQSYVNVC yielded an amyloid nucleation score of 0.084 ± 0.45. The same measure for STAWKCEVYRRV: 1.14 ± 0.33.

NCRFFIADVSLYPTWFIFYF returned an amyloid nucleation score of 2.82 ± 0.12. The same measure for ASVNSRSINSSGQFPPCFRK: -0.434 ± 0.61.

(Values after the supplement of paper PMC12042874.)
